Data on four molecules can be found in patent publication US20030054004A1 (published 2003).

Assay [1] deals with human lymphotoxin (TNFβ) (human) (UniProt P01374). Put plainly: cell-based or functional assay.
In another assay the target is recombinant human TNFα (human, UniProt P01375 77-233). Put plainly: cell-based or functional assay.
recombinant human TNFα, sequence (P01375 77-233): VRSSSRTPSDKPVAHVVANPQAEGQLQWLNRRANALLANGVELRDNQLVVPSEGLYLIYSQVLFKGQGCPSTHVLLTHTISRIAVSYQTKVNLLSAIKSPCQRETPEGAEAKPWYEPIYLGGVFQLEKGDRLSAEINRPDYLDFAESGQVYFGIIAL

human lymphotoxin (TNFβ) (human), sequence (P01374 35-205 limits assumed): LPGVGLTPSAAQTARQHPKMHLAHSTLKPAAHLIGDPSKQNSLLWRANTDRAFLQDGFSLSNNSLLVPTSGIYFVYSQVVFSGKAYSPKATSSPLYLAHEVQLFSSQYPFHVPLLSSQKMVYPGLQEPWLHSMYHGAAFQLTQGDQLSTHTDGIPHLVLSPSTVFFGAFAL

For “p75P-sf2 (p75 extracellular domain lacking the C-terminal 53 amino acids, fused to the IgG1 heavy chain) (from UniProt P20333 23-204) (Fc fusion)”, in assay [1], the concentration to half-inhibit human TNFβ at 2 pM, WEHI 164 cytotoxicity stood at 31 pM.

B1: chimeric mouse/human IgG1 anti-platelet mAb (7E3) (antibody, INN chains, looked up, V domains shown)
VH: EVQLQQSGTVLARPGASVKMSCEASGYTFTNYWMHWVKQRPGQGLEWIGAIYPGNSDTSYIQKFKGKAKLTAVTSTTSVYMELSSLTNEDSAVYYCTLYDGYYVFAYWGQGTLVTVSA
VL: EIVLTQSPVTLSVTPGDSVSLSCRASRDISNNLHWFQQTSHESPRLLIKYASQSMSGIPSRFSGSGSGTDFTLSINSVETEDFGMYFCQQTNSWPYTFGGGTKLEIK
modifications: IgG1
For the molecule B1, in the assay with recombinant human TNFα, the IL-6 in supernatant of FS-4 fibroblasts; TNF 0.3 ng/ml, 4 µg/ml antibody turned out to be 1.6 ng/mL; the IL-6 in supernatant of FS-4 fibroblasts; TNF 1.5 ng/ml, 4 µg/ml antibody was found to be 1.96 ng/mL; the IL-6 in supernatant of FS-4 fibroblasts; TNF 7.5 ng/ml, 4 µg/ml antibody turned out to be 2.16 ng/mL.

B2: p55-sf3 (p55 / IgG1 heavy chain fusion lacking the CH1 domain) (Fc fusion, human, not shown: a dimerising Fc or GST)
heavy: QVCPQGKYIHPQNNSICCTKCHKGTYLYNDCPGPGQDTDCRECESGSFTASENHLRHCLSCSKCRKEMGQVEISSCTVDRDTVCGCRKNQYRHYWSENLFQCFNCSLCLNGTVHLSCQEKQNTVCTCHAGFFLRENECVSCSNCKKSLECTKLCLPQIGTLVTVSS
Turning to B2, the “IC50: concentration of fusion protein required to inhibit 2 ng/ml (39.2 pM) TNFα by 50%, WEHI 164 cytotoxicity” value with recombinant human TNFα worked out at 100 pM.

B3: p75P-sf3 (as p75P-sf2 but lacking the CH1 domain) (Fc fusion, human, not shown: a dimerising Fc or GST)
heavy: QLPAQVAFTPYAPEPGSTCRLREYYDQTAQMCCSKCSPGQHAKVFCTKTSDTVCDSCEDSTYTQLWNWVPECLSCGSRCSSDQVETQACTREQNRICTCRPGWYCALSKQEGCRLCAPLRKCRPGFGVARPGTETSDVVCKPCAPGTFSNTTSSTDICRPHQICNVVAIPGNASMDAVCTSTSGTLVTVSS
Turning to B3, in the assay with recombinant human TNFα, the “IC50: concentration of fusion protein required to inhibit 2 ng/ml (39.2 pM) TNFα by 50%, WEHI 164 cytotoxicity” value came out at 130 pM.
